Substrate in data set [1]: O=c1[nH]c(=O)n([C@H]2C[C@H](O)[C@@H](COP(=O)(O)O)O2)cc1I
Nature of the data set: (§1) Compound was tested for binding affinity against Mycobacterium tuberculosis thymidine monophosphate kinase.

Substrate in data set [2]: Cc1cn([C@H]2C[C@H](F)[C@@H](COP(=O)(O)O)O2)c(=O)[nH]c1=O
The description is as §1.

Substrate in data set [3]: O=c1[nH]c(=O)n([C@H]2C[C@H](O)[C@@H](COP(=O)(O)O)O2)cc1F
Described as §1.

Substrate in data set [4]: Cc1cn(-c2ccc(COP(=O)(O)O)o2)c(=O)[nH]c1=O
The description is as §1.

Substrate in data set [5]: O=c1ccn([C@H]2C[C@H](O)[C@@H](COP(=O)(O)O)O2)c(=O)[nH]1
Described as §1.

Substrate in data set [6]: O=c1[nH]c(=O)n([C@H]2C[C@H](O)[C@@H](COP(=O)(O)O)O2)cc1Br
Described as §1.

Substrate in data set [7]: Cc1cn([C@H]2C[C@H](O)[C@@H](COP(=O)(O)O)O2)c(=O)[nH]c1=O
The data set is described as §1.

B1: Thymidylate kinase (Mycobacterium tuberculosis), P9WKE1 (protein)
chain: MLIAIEGVDGAGKRTLVEKLSGAFRAAGRSVATLAFPRYGQSVAADIAAEALHGEHGDLASSVYAMATLFALDRAGAVHTIQGLCRGYDVVILDRYVASNAAYSAARLHENAAGKAAAWVQRIEFARLGLPKPDWQVLLAVSAELAGERSRGRAQRDPGRARDNYERDAELQQRTGAVYAELAAQGWGGRWLVVGADVDPGRLAATLAPPDVPS
On to B1, for which the Km in data set [1] is 140 µM; in data set [2], 30 µM; in data set [3] it was 420 µM; in data set [4] it was 140 µM; in data set [5] it was 2100 µM; in data set [6], 33 µM. For the same protein, the Km in data set [7] came out at 4.5 µM.

(Values after ChEMBL document CHEMBL1135342, “Synthesis and evaluation of thymidine-5'-O-monophosphate analogues as inhibitors of Mycobacterium tuberculosis thymidylate kinase” (Bioorg Med Chem Lett, 2002).)
